Results published in article PMC4974639, “Crystal structures of APOBEC3G N-domain alone and its complex with DNA”.

How the values were obtained:
[1] = target: T1, rA3G-CD1 (loop-8 mutant) (Macaca mulatta (rhesus macaque), UniProt M1GSK9 1-138+=AEAG+147-196, internal_change); assay: EMSA; ITC: 100 mM NaCl, 50 mM HEPES pH 7.5, 25 C; EMSA: 60 mM HEPES pH 7.5, 100 mM NaCl, on ice 10 min, native PAGE; settings: protein: recombinant, tags: GST tag removed with PreScission (pGEX-6P-1), chain copies: 2
[2] = target: T1, rA3G-CD1 (loop-8 mutant); assay: ITC; n=0.83; ITC: 100 mM NaCl, 50 mM HEPES pH 7.5, 25 C; EMSA: 60 mM HEPES pH 7.5, 100 mM NaCl, on ice 10 min, native PAGE; settings: protein: recombinant; tags: GST tag removed with PreScission (pGEX-6P-1); chain copies: 2
[3] = target: rA3G-CD1 FWKL mutant (Macaca mulatta (rhesus macaque), UniProt M1GSK9 1-138+=AEAG+147-196, F126Y;W127S;K180S;L184S;internal_change); assay: ITC; ITC: 100 mM NaCl, 50 mM HEPES pH 7.5, 25 C; EMSA: 60 mM HEPES pH 7.5, 100 mM NaCl, on ice 10 min, native PAGE; settings: protein: recombinant; tags: GST tag removed with PreScission (pGEX-6P-1)
[4] = target: rA3G-CD1 Y124A (Macaca mulatta (rhesus macaque), UniProt M1GSK9 1-138+=AEAG+147-196, Y124A;internal_change); assay: as above; settings: protein: recombinant; tags: GST tag removed with PreScission (pGEX-6P-1)
[5] = target: T1, rA3G-CD1 (loop-8 mutant); assay: ITC; n=1.47; ITC: 100 mM NaCl, 50 mM HEPES pH 7.5, 25 C; EMSA: 60 mM HEPES pH 7.5, 100 mM NaCl, on ice 10 min, native PAGE; settings: protein: recombinant; tags: GST tag removed with PreScission (pGEX-6P-1); chain copies: 2

T1 sequence (M1GSK9 entry or part of it | mutant): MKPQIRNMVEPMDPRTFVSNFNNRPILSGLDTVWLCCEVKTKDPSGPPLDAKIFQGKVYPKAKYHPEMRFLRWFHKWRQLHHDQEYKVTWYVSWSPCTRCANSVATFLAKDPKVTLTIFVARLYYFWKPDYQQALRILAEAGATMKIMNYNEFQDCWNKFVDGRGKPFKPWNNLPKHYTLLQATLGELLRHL
rA3G-CD1 FWKL mutant, sequence (M1GSK9 entry or part of it F126Y;W127S;K180S;L184S/| mutant): as the sequence (M1GSK9 entry or part of it | mutant) above, with F126Y, W127S, K176S, L180S counted along it
rA3G-CD1 Y124A, sequence (M1GSK9 entry or part of it Y124A/| Y124A Y124A): as the sequence (M1GSK9 entry or part of it | mutant) above, with Y124A counted along it

Row | Binder | binding result [3] | binding result [4] | also measured
1 | AUUAUUAUUAUUUAUCCCUAUUUAUAUUUAUUGUUAUUGUUAUUGUUAUA (ssRNA) [50 nt RNA] |  |  | binding result ([1]; label: 5'-FAM): binds
2 | UAUUCAUUAU (ssRNA) [10 nt RNA] | no binding | no binding | Kd [2]: 1490 ± 180 nM
3 | ATTATTATTATTTATCCCTATTTATATTTATTGTTATTGTTATTGTTATA (ssDNA) [50 nt ssDNA] |  |  | binding result ([1]; label: 5'-FAM (EMSA)): binds
4 | TTTTTTTTTT (ssDNA) [10 nt poly-dT ssDNA] | no binding | no binding | Kd [5]: 1570 ± 310 nM
